# In publication PMC6887548 (Nature, 2019):
# B1: Cdc6 (natural protein)
# chain: MSAIPITPTKRIRRNLFDDAPATPPRPLKRKKLQFTDVTPESSPEKLQFGSQSIFLRTKALLQKSSELVNLNSSDGALPARTAEYEQVMNFLAKAISEHRSDSLYITGPPGTGKTAQLDMIIRQKFQSLPLSLSTPRSKDVLRHTNPNLQNLSWFELPDGRLESVAVTSINCISLGEPSSIFQKIFDSFQDLNGPTLQIKNMQHLQKFLEPYHKKTTFVVVLDEMDRLLHANTSETQSVRTILELFLLAKLPTVSFVLIGMANSLDMKDRFLSRLNLDRGLLPQTIVFQPYTAEQMYEIVIQKMSSLPTIIFQPMAIKFAAKKCAGNTGDLRKLFDVLRGSIEIYELEKRFLLSPTRGSLNSAQVPLTPTTSPVKKSYPEPQGKIGLNYIAKVFSKFVNNNSTRTRIAKLNIQQKLILCTIIQSLKLNSDATIDESFDHYIKAITKTDTLAPLQRNEFLEICTILETCGLVSIKKTKCKGKTKRFVDKIDVDLDMREFYDEMTKISILKPFLH
# B2: Orc6 (natural protein)
# chain: MSMQQVQHCVAEVLRLDPQEKPDWSSGYLKKLTNATSILYNTSLNKVMLKQDEEVARCHICAYIASQKMNEKHMPDLCYYIDSIPLEPKKAKHLMNLFRQSLSNSSPMKQFAWTPSPKKNKRSPVKNGGRFTSSDPKELRNQLFGTPTKVRKSQNNDSFVIPELPPMQTNESPSITRRKLAFEEDEDEDEEEPGNDGLSLKSHSNKSITGTRNVDSDEYENHESDPTSEEEPLGVQESRSGRTKQNKAVGKPQSELKTAKALRKRGRIPNSLLVKKYCKMTTEEIIRLCNDFELPREVAYKIVDEYNINASRLVCPWQLVCGLVLNCTFIVFNERRRKDPRIDHFIVSKMCSLMLTSKVDDVIECVKLVKELIIGEKWFRDLQIRYDDFDGIRYDEIIFRKLGSMLQTTNILVTDDQYNIWKKRIEMDLALTEPL
# Tests used:
# [1] = biological target: origin recognition complex (ORC) (yeast, UniProt P54784;P32833;P54790;P54791;P50874;P38826); assay: cryo-EM 2D class averages
# Mcm5 = biological target: T1, Mcm5 (yeast, UniProt P29496); assay: cryo-EM structure
# T1 sequence: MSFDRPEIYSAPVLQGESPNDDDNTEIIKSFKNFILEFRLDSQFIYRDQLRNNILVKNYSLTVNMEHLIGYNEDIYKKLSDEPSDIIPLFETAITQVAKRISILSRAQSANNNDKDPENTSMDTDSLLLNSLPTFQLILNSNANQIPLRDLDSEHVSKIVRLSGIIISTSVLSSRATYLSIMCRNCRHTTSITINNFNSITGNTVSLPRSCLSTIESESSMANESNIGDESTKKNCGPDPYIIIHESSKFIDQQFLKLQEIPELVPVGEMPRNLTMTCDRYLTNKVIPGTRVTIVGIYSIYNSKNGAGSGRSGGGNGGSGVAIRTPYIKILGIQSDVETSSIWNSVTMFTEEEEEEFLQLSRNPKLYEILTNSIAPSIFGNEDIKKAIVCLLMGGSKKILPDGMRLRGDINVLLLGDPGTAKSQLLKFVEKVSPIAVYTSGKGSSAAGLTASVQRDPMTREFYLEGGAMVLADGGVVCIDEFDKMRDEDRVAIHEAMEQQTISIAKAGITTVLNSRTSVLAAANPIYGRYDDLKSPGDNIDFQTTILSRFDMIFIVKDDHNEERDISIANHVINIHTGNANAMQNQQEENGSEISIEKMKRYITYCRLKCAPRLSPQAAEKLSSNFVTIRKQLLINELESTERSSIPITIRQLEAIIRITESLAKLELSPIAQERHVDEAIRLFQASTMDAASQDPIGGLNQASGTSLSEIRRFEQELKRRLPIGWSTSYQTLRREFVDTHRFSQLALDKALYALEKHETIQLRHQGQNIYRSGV
# Mcm2 = biological target: T2, Mcm2 (yeast, UniProt P29469); assay: cryo-EM structure
# T2 sequence: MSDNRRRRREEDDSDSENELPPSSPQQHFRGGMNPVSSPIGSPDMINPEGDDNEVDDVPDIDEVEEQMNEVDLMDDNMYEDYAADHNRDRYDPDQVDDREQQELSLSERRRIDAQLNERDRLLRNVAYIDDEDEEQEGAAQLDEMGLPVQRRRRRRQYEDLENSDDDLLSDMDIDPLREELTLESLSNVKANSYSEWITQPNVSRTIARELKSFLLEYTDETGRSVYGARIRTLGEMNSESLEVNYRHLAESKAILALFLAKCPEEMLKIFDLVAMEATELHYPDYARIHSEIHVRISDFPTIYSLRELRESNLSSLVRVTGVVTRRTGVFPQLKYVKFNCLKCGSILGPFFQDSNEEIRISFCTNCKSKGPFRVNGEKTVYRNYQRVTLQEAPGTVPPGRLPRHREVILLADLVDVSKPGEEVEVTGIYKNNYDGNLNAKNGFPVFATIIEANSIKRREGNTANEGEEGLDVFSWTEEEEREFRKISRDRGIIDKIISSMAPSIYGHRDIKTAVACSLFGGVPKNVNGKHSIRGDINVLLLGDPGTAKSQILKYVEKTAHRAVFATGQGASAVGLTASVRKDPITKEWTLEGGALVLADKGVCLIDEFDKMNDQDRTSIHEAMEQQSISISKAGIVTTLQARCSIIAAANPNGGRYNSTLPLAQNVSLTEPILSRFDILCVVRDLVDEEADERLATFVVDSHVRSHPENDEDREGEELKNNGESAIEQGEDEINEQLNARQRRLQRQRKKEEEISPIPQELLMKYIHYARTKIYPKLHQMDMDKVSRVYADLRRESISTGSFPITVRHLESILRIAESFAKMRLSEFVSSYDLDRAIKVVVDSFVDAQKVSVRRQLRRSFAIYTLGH
Binder,binding result [1],binding result (Mcm5),binding result (Mcm2)
B1,binds,–,–
B2,–,binds,binds
